Target: T1, p80 TNFR (endogenous) (UniProt P20333 23-461, limits assumed)
T1 construct: whole, on cells; also called TNFR2; p75
T1 sequence (looked up): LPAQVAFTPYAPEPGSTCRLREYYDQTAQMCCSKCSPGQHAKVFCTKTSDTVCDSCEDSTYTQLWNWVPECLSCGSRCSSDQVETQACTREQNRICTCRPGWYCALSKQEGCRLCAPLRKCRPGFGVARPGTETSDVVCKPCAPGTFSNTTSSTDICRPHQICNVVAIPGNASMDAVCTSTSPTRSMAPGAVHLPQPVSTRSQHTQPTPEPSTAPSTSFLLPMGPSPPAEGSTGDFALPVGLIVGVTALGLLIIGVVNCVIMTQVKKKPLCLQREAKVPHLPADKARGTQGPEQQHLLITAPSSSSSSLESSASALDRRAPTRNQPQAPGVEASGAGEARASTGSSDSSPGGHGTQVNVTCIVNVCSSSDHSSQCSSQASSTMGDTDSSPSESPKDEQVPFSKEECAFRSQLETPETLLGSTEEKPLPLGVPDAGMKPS
Assay: DTSSP crosslinking of H9 cells, anti-p60 immunoprecipitation, Western blot
Method: H9 lymphoma cells were washed and resuspended in PBS. […] Cells were then treated with 2 mM of the crosslinker DTSSP (Pierce) for 30 minutes and the reaction was quenched with 20 mM Tris.Cl [pH 7.5] for 15 minutes on ice. The cells were lysed in 150 mM NaCl, 20 mM Tris.Cl [pH 7.5], 1 mM EDTA, 30 mM NaF, 2 mM b-glycerophosphate and 1 mM sodium orthovanadate with protease inhibitors added (Boehringer Mannheim). […] Densitometry was performed with a Kodak Image Station 440.

B1: p60 TNFR (endogenous) (receptor, UniProt P19438 30-455, looked up)
chain: LVPHLGDREKRDSVCPQGKYIHPQNNSICCTKCHKGTYLYNDCPGPGQDTDCRECESGSFTASENHLRHCLSCSKCRKEMGQVEISSCTVDRDTVCGCRKNQYRHYWSENLFQCFNCSLCLNGTVHLSCQEKQNTVCTCHAGFFLRENECVSCSNCKKSLECTKLCLPQIENVKGTEDSGTTVLLPLVIFFGLCLLSLLFIGLMYRYQRWKSKLYSIVCGKSTPEKEGELEGTTTKPLAPNPSFSPTPGFTPTLGFSPVPSSTFTSSSTYTPGDCPNFAAPRREVAPPYQGADPILATALASDPIPNPLQKWEDSAHKPQSLDTDDPATLYAVVENVPPLRWKEFVRRLGLSDHEIDRLELQNGRCLREAQYSMLATWRRRTPRREATLELLGRVLRDMDLLGCLEDIEEALCGPAALPPAPSLLR
notes: whole, on cells; also called endogenous p60 receptor; TNFR1
**Q.** Does B1 bind?
**A.** no binding
